One may read the Kd as the concentration at which binding is half-saturated. A lower Kd goes with tighter binding.

Kd data for 2 substances are collected here from paper PMC10315472.

Holding throughout (experiment): SPR
In general terms: SPR reads the build-up and loss of mass on a sensor chip optically.

Test [1] addresses wild-type SARS-CoV-2 Spike receptor-binding domain (SARS-CoV-2) (UniProt P0DTC2).
For the next test, the target named is AMSIN (actinomyces).
In test [2] the target is emorisin (Emergomyces orientalis).

As to (ΔGFG)AMSIN (peptide), the Kd in test [1] was 119 nM.
Turning to “wild-type SARS-CoV-2 Spike receptor-binding domain (from UniProt P0DTC2 319-527) (domain or fragment)”, the Kd in the test with AMSIN (actinomyces) is 193 nM; in test [2], 7.6 nM.
